Laboratory results as given in paper PMC8865267 (mAbs, 2022).
Like-named read-outs stand apart in the source and are kept apart here.

Experiments:
[1] = target: human CTLA-4 with C-terminal Myc, poly-histidine and BirA biotinylation tag (Homo sapiens (Human).) (UniProt P16410); assay: SPR
[2] = target: CTLA-4 of activated primary human CD4+CD25+ T cells (human (endogenous in primary CD4+CD25+ …, UniProt P16410)); assay: flow cytometry on cells
[3] = target: CTLA-4 on BW cells expressing ~2,000 CTLA-4 receptor copies (Homo sapiens (Human)., UniProt P16410); assay: flow cytometry on cells
Sequence of CTLA-4 on BW cells expressing ~2,000 CTLA-4 receptor copies (P16410 36-223): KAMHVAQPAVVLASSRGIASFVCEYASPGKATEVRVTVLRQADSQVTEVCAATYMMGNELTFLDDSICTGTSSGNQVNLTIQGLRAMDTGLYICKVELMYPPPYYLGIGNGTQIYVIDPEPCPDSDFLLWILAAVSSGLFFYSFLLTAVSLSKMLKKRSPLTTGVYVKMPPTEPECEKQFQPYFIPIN

[4] = target: T1, human CTLA-4 with C-terminal poly-histidine tag (crystallography construct) (human, UniProt P16410, glycans trimmed with EndoH); assay: crystal structure
T1 sequence (P16410 36-161): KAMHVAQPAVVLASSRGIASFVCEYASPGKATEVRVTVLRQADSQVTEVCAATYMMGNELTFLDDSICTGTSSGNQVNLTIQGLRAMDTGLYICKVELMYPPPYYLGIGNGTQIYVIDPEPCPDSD

[5] = target: T1, human CTLA-4 with C-terminal …; assay: crystal structure; remark: listed apart in the source

Sequence of CTLA-4 of activated primary human CD4+CD25+ T cells (human (P16410 36-223): as the sequence (P16410 36-223) above
Sequence of ipilimumab Fab (P16410 36-161): as the sequence (P16410 36-161) above

Molecule	binding result [2]	binding result [3]	other results
ipilimumab Fab			Kd [1]: 40 nM
Ipi.105 IgG1, non-fucosylated (antibody, V domains shown) VH: QVQLVESGGGVVQPGRSLRLSCAASGFTFSHYTMHWVRQAPGKGLEWVTFISYDGHNKYYADSVKGRFTISRDNSKNTLYLQMNSLRAEDTAIYYCARTGWLGPFDYWGQGTLVTVSS VL: EIVLTQSPGTLSLSPGERATLSCRASQEVGESELAWYQQKPGQAPRLLIYGAFSRATGIPDRFSGSGSGTDFTLTISRLEPEDFAVYYCQQYGSSPWTFGQGTKVEIK	binds	binds	
Ipi.105 Fab (Fab, V domains shown) VH: QVQLVESGGGVVQPGRSLRLSCAASGFTFSHYTMHWVRQAPGKGLEWVTFISYDGHNKYYADSVKGRFTISRDNSKNTLYLQMNSLRAEDTAIYYCARTGWLGPFDYWGQGTLVTVSS VL: EIVLTQSPGTLSLSPGERATLSCRASQEVGESELAWYQQKPGQAPRLLIYGAFSRATGIPDRFSGSGSGTDFTLTISRLEPEDFAVYYCQQYGSSPWTFGQGTKVEIK			binding result [4]: binds
Ipi.106 Fab (Fab, V domains shown) VH: QVQLVESGGGVVQPGRSLRLSCAASGFTFSHYTMHWVRQAPGKGLEWVTFISYDGHNKYYADSVKGRFTISRDNSKNTLYLQMNSLRAEDTAIYYCARHGWLGPFDYWGQGTLVTVSS VL: EIVLTQSPGTLSLSPGERATLSCRASQEVGESELAWYQQKPGQAPRLLIYGAFSRATGIPDRFSGSGSGTDFTLTISRLEPEDFAVYYCQQYGSSPWTFGQGTKVEIK			binding result [5]: binds
Ipi.106 IgG1, non-fucosylated (antibody, V domains shown) VH: QVQLVESGGGVVQPGRSLRLSCAASGFTFSHYTMHWVRQAPGKGLEWVTFISYDGHNKYYADSVKGRFTISRDNSKNTLYLQMNSLRAEDTAIYYCARHGWLGPFDYWGQGTLVTVSS VL: EIVLTQSPGTLSLSPGERATLSCRASQEVGESELAWYQQKPGQAPRLLIYGAFSRATGIPDRFSGSGSGTDFTLTISRLEPEDFAVYYCQQYGSSPWTFGQGTKVEIK	binds	binds	
